The record followed here is the DeepSol protein solubility set.

The series can be described thus: soluble on expression in E. coli; label from the status in PepcDB or PDB records.
With “VNVVQLASAPLHRIVAYTNESCALALYRDQDATLVFAKQVESANQLRYQLDLYRPVSVLWGASGHAVLAHLPPERVRTLLKKEPLSPTGLAALPARELNRDLKQIREQGYSVSTRGEKIEGAAGISTPIFGTGGHVIGCFSLFIPRIRYPEHRETELAQLLVREAGALSDVLAGRQAAPA”, the “soluble on expression in E. coli” value is given as “not soluble”. As to “MEVPEIEKQIGINLYSTDTTGLGGQLRQEIEDFIVKEITNREEGEEGKYLIVELTKRDWDTHHLTRTLSRILQVSQKRISVAGTKNKRALTTQKISIFDTDASEIEKIHLKDIELKVLGRSRKSVELGDLWGNDFRITVRNIENSPEETEALLKKTTDEILAQGGVPNFFGIQRFGSVRPVTHLVGKAIVEGNFEKAALLYIAEPFPEEPEETKNARQFVKDTLDFKEGLKTYPLRLGHERAMMNHLIANPEDYSGSFRVLPQNLYRMFVHGYQSYIYNIILCRRIEAGIPLNRAVEGDIVCFRNEVGLPDSSKTEKVTSETVNAMNRLLKLGRAFITAPLPGYNTEFASGIPGEIENGVLKELGVSLEGFNIEKFPEMSSKGTRREVLLEVKPKFEAGEDELNPGKSKAVLEFMLPKGSYATTVLREYMKVNPLQMSLEHHHHHH”, the “soluble on expression in E. coli” value is on record as “soluble”.

On to “MSLRKHCIAIGGGGWMMGENPSPLYQYILSLSGKENPNICFLPTATGDADEVIERFYNAKLSENVTHFPLFKFDAGWKETLFEQDIIYVGGGNTRSMLAIWREWGIDRILKQCYEQGIIICGMSAGAICWFEFAVTDSDPEAYQVMRCLGLIDGLAAAHFSHVGEKFEVFQAFARSQPSITCYGIHDYAALHFVDGKLLATVTSFPDAGVLVKTGNDENILRGEGHHHHHH”, for which the “soluble on expression in E. coli” value is recorded as “soluble”. Take “MAAEIKQGDHKFYVGDDENNPKAVITFKEVDNNEIDIDHTGVSDELGGQGLGKKLVNRVVEHARENNLKIIASCPFAKNVLEKDDHAQDVYLGLEHHHHHH”: the “soluble on expression in E. coli” value is “soluble”. Consider “MIDCLVMAGGQGARMGFREKPLLSVCGQPMLLRVLSALRMACRRIAIVYSRHTPGVKRLCLSGALGAVECIEGPGSYVKDLRLGFSHISTPLLVAPADMPFLNPHHLNLFIDRALADGASIVNLSLRGRGLTGLSVFKHHRGWWRDVETNGCWALDVDTWEDFRRAGELCGGECTGEGLRLELLEHHHHHH”, for which the “soluble on expression in E. coli” value is “not soluble”. Take “MDMLKENVIQNNEARTESSVEPSHPDMMETVPEEQQKPISHIDDLLSETANLMAVKEQLLKEIAENEHIHSMQMRALQNLPQEAILPLQYHADPRRRHRMQKPESYKTVICQAWLESKTCAFAENCRFAHGEEELRPSLIEARQNNKYRTKLCDKYTTTGLCPYGKRCLFIHPDNGPNAYIRADKLFEVSQRHALADLRDQMEHHIMNGGRSTAGPQQFDMFARPCTPDEPAANMPLGPTPVSIRGPRYELPSKKPLETEEAGNRPPSSWPLDPSTFFALDSLNMATRPISPFESMLIGAAGNMQYSMLGKQSTPGGVSGYSSSGSTPSQDSDSSPLTAASAAADAACQANSESAQSILLKSINNPMIGNETTLPIPGLDQLAMDIAKHLELW”: the “soluble on expression in E. coli” value is given as “not soluble”. With “MGSDKIHHHHHHMFKKYDAYLVGYYGMQNSGDDALMYATAWAAKNILGCNNTKVGLYGDYARETQSDNQLPLKFTQQFPGQNRLLHYKTAIQSKRIIFGGGSVLHSESDINLKRQLMSLANQKKSLAVGIGIGPFNSVMAEKSCAKFLNECGYVGVRDNASLAIARNIAPHANVHKTFDLAPLLLCSKQYKPSNRERQGIALTLCSVAIDAMGNTDELEEEKRVEQFVQLITKIYARTGEPITLIEFNGHNVLGDWKINNNIITRLLDKYIPVSIKKYDPNPIALLNKLSGYKAIVSMRLHGSILGYLANTPVLSINYHSKCKGWCDEVGMPEDYKIDLFNLNIEKIVSQIALGVSTTFQQPTLSINNALKNSLSNWSTQNEQFKFYRNYSTV”, the “soluble on expression in E. coli” value is “not soluble”. Regarding “MGSDKIHHHHHHMFYQLYEMNHAMMAPWRTAADAMRLAFSNPMNPVSHTYFGRAAAAGLEVFERATRRYGKPEFGLPETEIDGQPVPVRERIVWREPFCNLIHFERSLPRDRAPDPKVLIVAPMSGHYATLLRGTVEALLPHSDVYITDWIDARMVPLSEGTFDLDDYIDYVIQMLHFLGPDAHVIGVCQPAVPVLAAVALMEAAEDPLAPSTMTLMGGPIDTRINPTAVNELAKERPIEWFRDNVVMPVPWPQPGFMRMVYPGFLQLSGFMSMNLDRHLIAHKEFFAHLVKNDGDAAEKHRDFYDEYLAVMDLTAEFYLQTVQVVFMQHALPKGEMIHRGKRVDPTAIRRVALLTVEGENDDISGLGQTKAAQTICTGIPDSMRQHYMQPDVGHYGVFNGSRFRREIAPRIVAFQRRHSRHAKPVKQLIKGGKSA”, the “soluble on expression in E. coli” value is listed as “not soluble”. In the case of “MMEMRVGIVGGGLAGLTAAIALAEKGFDVSIIGPRSTDSNSYLAQAGIALPLLEGDSIRIHVLDTIKAGKYINDEEIVWNVISKSSEAHDFLTSHGVTFTGNELEGGHSYPRIFTIKSETGKHIIPILEKHARELDVNFIRGFVEEIGINNGKLAGVFLQGELLKFDAVVIAAGGFSGLYRFTAGVKNNIGLLIGDVALKGVPLRDMEFVQFHPTGFIGKRTYLITEAVRGAGAKLVTGDGERFVNELETRDIVARAIYMKMLEGKGVFLDARGIENFKDRFPYIYSVLRGEGINPEKDLIPITPVAHYTIGGISVDAFYRTRIKGLYAIGESACNGFHGANRLASNSLLECVVSGLEVARTISREKPKREVNDAPYSFNELGDVDSIREVLWNHAGIVRDEWSLREGLRKLKEIEVDERLKLVAKAVIISALKREESRGAHYRKDYPFMRKEFEHSSFFYPNV”, the “soluble on expression in E. coli” value is given as “soluble”. As for “MDVEKIALKHALINAIEHGGKANLKAVIGKVLGENPELRPRAKEIIPIINKVVEEVNSLARDEQLEKLKDIYPEYFEKKEEKKEKKGLPLLPKAEKGKVVTRFAPNPDGAFHLGNARAAILSYEYAKMYGGKFILRFDDTDPKVKRPEPIFYKMIIEDLEWLGIKPDEIVYASDRLEIYYKYAEELIKMGKAYVCTCPPEKFRELRDKGIPCPHRDEPVEVQLERWKKMLNGEYKEGEAVVRIKTDLNHPNPAVRDWPALRIIDNPNHPRTGNKYRVWPLYNFASAIDDHELGVTHIFRGQEHAENETRQRYIYEYFGWEYPVTIHHGRLSIEGVVLSKSKTRKGIEEGKYLGWDDPRLGTIRALRRRGILPEAIKELIIEVGLKKSDATISWENLAAINRKLVDPIANRYFFVADPIPMEVEGAPEFIAEIPLHPDHPERGVRRLKFTPERPVYVSKDDLNLLKPGNFVRLKDLFNVEILEVGDKIRARFYSFEYEIAKKNRWKMVHWVTEGRPCEVIIPEGDELVVRKGLLEKDAKVQVNEIVQFERFGFVRIDRIEGDKVIAIYAHK”, the “soluble on expression in E. coli” value was “soluble”. Then “IKDWTWKMGGNISYNKNKVVTLPDNGQPKNRIGGQQIYTGRKVLDEAGNQVDEVIFVGGKQEGQEPGILVGYKAEGLYKDWKDIPGDLVVKTGNYQGKYQYGPKAYAALSDAEKAKALQIEPGDVKWKDINNDGTIDAFDQIVIGNTTPHWFGGFNTTLTWKGLTLYGRFDFALDYWIYDNTTPWFLGCMQGGYNTTTDVFNTWSEENPNAKYPRYVWADQLGTANYYRTSTMFAYKGNYLAIREISLSYSLPQNIARKFYCQKLDVSVTGQNLGYITSANVATPEVSSAGSGYALPRTLLFGINVTF”, with “not soluble”; and “MSLIRSKYAFLQKLTRDLKMKSINIGEELEGATPPSVFIGSWNYPKVYAGPMIAPVQEEVEIFDSPERWIPERKTQEEIIDYRLNLVRGKQLVGVRDLDNHLVEKLQEISLSSGAIESEAQFRRKPRGLFFSEEQTPHGPSAVLENFEIENVKWDRELERAYHDTDLRAREAIVELHRKGTPFSAVQKALSVGALGEGKRRKLVPTRWSITACDSTLADHFLERVLEYEPIDTFRVHEFESLKNHYLILLTPSEWQYEWMEAFMKRDGRAMIFSDHETGKGKREYSRVGGCYYSAKMAVLDALDREEKQAGAIILREAYPGYVPLGVFNVRENVKNAMDTEPTMFNDLRGALEFIDSKLKLGLEAFRVRSNLLKELEVSRQTTLDSFFREGHHHHHH”, with “not soluble”; and “MTEPKKEIIEDENHGISKKIPTDPRQYEKVTEGCRLLVMMASQEEERWAEVISRCRAANGSIKFYVHYIDCNRRLDEWVQSDRLNLASCELPKKGGKKGAHLREENRDSNENEGKKSGRKRKIPLLPMDDLKAESVDPLQAISTMTSGSTPSLRGSMSMVGHSEDAMTRIRNVECIELGRSRIQPWYFAPYPQQLTSLDCIYICEFCLKYLKSKTCLKRHMEKCAMCHPPGNQIYSHDKLSFFEIDGRKNKSYAQNLCLLAKLFLDHKTLYYDTDPFLFYVLTEEDEKGHHIVGYFSKEKESAEEYNVACILVLPPFQKKGYGSLLIEFSYELSKIEQKTGSPEKPLSDLGLLSYRSYWSMAIMKELFAFKRRHPGEDITVQDISQSTSIKREDVVSTLQQLDLYKYYKGSYIIVISDEKRQVYEKRIEAAKKKTRINPAALQWRPKEYGKKRAQIMF”, with “not soluble”. As to “KCLVLDLDGTLWGGVVGEDGIEGIKLGPTGSGKPFYEFQKYIKSLFKKGVILAVNSKNNYDDAMEVIRKHPYMVLREEDFADFEINWQDKASNMRAIAKKLNIGIDSMVFMDDD”, the “soluble on expression in E. coli” value is on record as “not soluble”. In the case of “MMIMERHYTLKEASKILGVSIKTLQRWDKAGKIKCIRTLGGKRRVPESEIKRILGIKDKEQRKIIGYARVSFNAQKDDLERQIQLIKSYAEENGWDIQILKDIGSGLNEKRKNYKKLLKMVMNRKVEKVIIAYPDRLTRFGFETLKEFFKSYGTEIVIINKKHKTPQEELVEDLITIVSHFAGKLYGMHSHKYKKLTKTVKEIVREEDAKEKE”, the “soluble on expression in E. coli” value is “not soluble”. Turning to “MGHHHHHHSHMKRSLSENSARSTADWAWEAVNPELAPVMKTVDTGQIPHSVSRPLRSQDSVFNSIQSNTGRSQGGWSYRDGNKNTSLKTWNKNDFKPQCKRTNLVANDGKNSCPVSSGAQQQKQLRIPEPPNLSRNKETELLRQTHSSKISGCTMRGLDKNSALQTLKPNFQQNQYKKQMLDDIPEDNTLKETSLYQLQFKEKASSLRIISAVIESMKYWREHAQKTVLLFEVLAVLDSAVTPGPYYSKTFLMRDGKNTLPCVFYEIDRELPRLIRGRVHRCVGNYDQKKNIFQCVSVRPASVSEQKTFQAFVKIADVEMQYYINVMNET”, the “soluble on expression in E. coli” value is “not soluble”. “MFKVNEYFDGTVKSIAFSQAEGQATIGVMAAGEYEFGTAQREIMHVISGELNVKLPDSTDWETFSTGSQFNVPANSKFQLKVSVDTAYLCEYR”: the “soluble on expression in E. coli” value is “not soluble”. Take “GPGSMDQDLSVCEQEYRKLLDPEEPLFSRTRELYRLKESILRTPAGVHVLAKAVDTTNSVLLQHELVYNLGQSAMVEACPHLERFIRAVGKYDIVTRHEAVEALGAIGDPACIPLLRHFMEPANEPEAAIRESCELALKRIEMLEEKGKEAVGPAANCPFVSIDPAPAFNGTNTGGSAPYTVSELENLLCDTTGAVSLWLRYQAMFTLRNIGTPEAVAALSRALRQDNTSALLRHEVAFVLGQLEHPASQPALLDALRDEHEAPMVRHEAAEALGAIADPKTLPALEEYAKHKEAIVRDSCVVALEMHKYWSQFNNQRIQH”: the “soluble on expression in E. coli” value is “soluble”. As to “MSLQVEKISIIGLGLIGGSLAKALKEKLGIESITAVDINEKSLSQALKEGFIKEGFTELNESVYNSDIIFICTPVKDAVEYITRLHGKVKAGCILTDTASTKGEIIDYVNSLDNPPCFIGGHPMAGTEKAGFSSSFSHLFENAYYIMSPSKNCPEESLEYLAEIIRGIGAIPIKLDSKEHDIITATISHVPHVIASALVNLVKFSDSPDGKMQTLAAGGFKDITRIASSNPKMWENIILSNKEIVKSTLNKFTETINTFIEYIDNENSNGIYNFFDSAKKFRDSIPNNRKGLIEPQNELIVDVVDKPGIIGEIATILGNNGINIKNINVSNSREFEQGCLRITLPDSGSVAEAYELLAKKGYKVFKIEGHHHHHH”, the “soluble on expression in E. coli” value is listed as “soluble”.

As to “MLYKGCLMKSDVQLNLRAKESQRALIDAAAEILHKSRTDFILETACQAAEKVILDRRVFNFNDEQYEEFINLLDAPVADDPVIEKLLARKPQWDV”, the “soluble on expression in E. coli” value was “not soluble”.
